Data set [1] addresses human PIP5KB (D51R), purified, unlabelled (human).
For data set [2], the target named is mNG-PIP5KB, recombinantly expressed and purified (human) (UniProt O14986).
The target is the same in data set [3]. Briefly: single-molecule TIRF molecular brightness, photobleaching and tracking on supported lipid bilayers; purified mNG kinases at 100 pM; equilibrium membrane binding at ~600 kinases per field of view (0.2 kinases/µm^2); particles with intensity ≥8200 A.U. counted as dimers; membrane 96% DOPC, 4% PI(4,5)P2.
For data set [4], the target named is mouse PIP5KA (D92R), purified (mouse).
The target in data set [5] is mouse PIP5KA, purified (mouse).
Data set [6] concerns the molecule itself. Description: single-molecule TIRF molecular brightness and photobleaching on supported lipid bilayers; mNG-tagged kinase in HEK293 cell lysate diluted ~10,000-fold to ~10 pM (legend: 1 pM mNG-PIP4KB, 5 pM mNG-PIP5K); low surface density ~0.03 molecules/µm^2; membrane 96% DOPC, 4% PI(4,5)P2; 23°C.
Data set [7] concerns the molecule itself. Briefly: single-molecule TIRF molecular brightness on supported lipid bilayers; purified kinases labelled with Alexa488 by Sortase-mediated peptide ligation; membrane 96% DOPC, 4% PI(4,5)P2.

In the case of “human PIP5KB (D51R), purified, unlabelled (enzyme)”, the lipid kinase activity on supported lipid bilayers, reduction against wild-type PIP5KB in data set [1] came to 7 fold. As for “mNG-PIP5KB, recombinantly expressed and purified (from UniProt O14986 1-540) (enzyme)”, the effective phosphorylation rate constant per membrane-bound kinase (after the transition from slow to fast kinetics) (lipids/µm^2•s per kinase) in data set [2] amounted to 0.0027. Also, in data set [3], the fold frequency of dimers against mNG-PIP5KB (D51R) is 5 fold; the stoichiometry N (in general, the number of molecules, sites or subunits per partner or assembly) came to 2; the time that dimers persist before photobleaching or dissociating was in the range of 1 to 2 s. In turn, mouse PIP5KA (D92R), purified (enzyme) showed a reaction half-time of PI(4,5)P2 production at 5, 2.5 and 1 nM kinase (71 s, 139 s, 270 s) in data set [4] of 270 s.

Take mouse PIP5KA, purified (enzyme): the reaction half-time of PI(4,5)P2 production at 5, 2.5 and 1 nM kinase (28 s, 49 s, 90 s) in data set [5] amounted to 90 s.

B1: mNeonGreen-tagged human phosphatidylinositol 5-phosphate 4-kinase type-2 beta (mNG-PIP4KB) (enzyme, UniProt P78356 1-416, looked up)
chain: MSSNCTSTTAVAVAPLSASKTKTKKKHFVCQKVKLFRASEPILSVLMWGVNHTINELSNVPVPVMLMPDDFKAYSKIKVDNHLFNKENLPSRFKFKEYCPMVFRNLRERFGIDDQDYQNSVTRSAPINSDSQGRCGTRFLTTYDRRFVIKTVSSEDVAEMHNILKKYHQFIVECHGNTLLPQFLGMYRLTVDGVETYMVVTRNVFSHRLTVHRKYDLKGSTVAREASDKEKAKDLPTFKDNDFLNEGQKLHVGEESKKNFLEKLKRDVEFLAQLKIMDYSLLVGIHDVDRAEQEEMEVEERAEDEECENDGVGGNLLCSYGTPPDSPGNLLSFPRFFGPGEFDPSVDVYAMKSHESSPKKEVYFMAIIDILTPYDTKKKAAHAAKTVKHGAGAEISTVNPEQYSKRFNEFMSNILT
notes: human phosphatidylinositol 5-phosphate 4-kinase type-2 beta (PIP4KB, PIP4K2B); Lentiviral vector with SFFV promoter; also called hPIP4K2B; source: HEK293T, transiently transfected, in clarified cell lysate (diluted); not shown: mNeonGreen, N-terminal, kept
In the case of B1, the “stoichiometry N” value in data set [6] stood at 2.

B2: Alexa488-labelled human PIP4KB (Ax488-PIP4KB), purified (enzyme)
chain: GGGGGMSSNCTSTTAVAVAPLSASKTKTKKKHFVCQKVKLFRASEPILSVLMWGVNHTINELSNVPVPVMLMPDDFKAYSKIKVDNHLFNKENLPSRFKFKEYCPMVFRNLRERFGIDDQDYQNSVTRSAPINSDSQGRCGTRFLTTYDRRFVIKTVSSEDVAEMHNILKKYHQFIVECHGNTLLPQFLGMYRLTVDGVETYMVVTRNVFSHRLTVHRKYDLKGSTVAREASDKEKAKDLPTFKDNDFLNEGQKLHVGEESKKNFLEKLKRDVEFLAQLKIMDYSLLVGIHDVDRAEQEEMEVEERAEDEECENDGVGGNLLCSYGTPPDSPGNLLSFPRFFGPGEFDPSVDVYAMKSHESSPKKEVYFMAIIDILTPYDTKKKAAHAAKTVKHGAGAEISTVNPEQYSKRFNEFMSNILT
modifications: Alexa488 on the N-terminal amine of the ligated LPETGG peptide
notes: glycine stretch of his6-SUMO3-GGGGG-PIP4K2B left after SenP2 cleavage; human PIP4K2B isoform 2, 1-416aa; Surmise: Sortase ligation leaves Alexa488-LPET joined to GGGGG-PIP4K2B; also called Alexa488-PIP4K; PIP4K2B; source: E. coli BL21(DE3) Star, purified (Co2+ HiTrap Chelating, Superdex 200), labelled by Sortase-mediated peptide ligation; not shown: His6, N-terminal, cleaved; SUMO3, N-terminal, …
With B2, in data set [7], the binding result is “binds”.

The values above are taken from PMC9470164, “Membrane-mediated dimerization potentiates PIP5K lipid kinase activity” (eLife, 2022).
